Results published in PMC8093152, “Biosynthesis of the Tricyclic Aromatic Type II Polyketide Rishirilide: New Potential Third Ring Oxygenation after Three Cyclization Steps” (Molecular Biotechnology, 2021).

B1: RslO4 monooxygenase, C-terminal His-tag recombinant protein (enzyme, Streptomyces bottropensis Gö C4/4)
chain: MAVVFVNKLTLIGDAEEFESRYEAVGAFMETQPGLVRYSLVRSTKDDSVYFNIAEWDDEDTFRKALAEPEFRRRLDALTGLIKGEPHLSLPVRQGRAAQV
notes: RslO4, monooxygenase of the rishirilide (Rsl) gene cluster of Streptomyces bottropensis Gö C4/4; gene amplified from cosmid 4 and cloned between NdeI and XhoI of pET21a(+); rslO4 gene printed as 300 bps; predicted mass of the tagged protein 12.17 kDa; also called monooxygenase RslO4; cofactor-independent monooxygenase RslO4; source: E. coli BL21 (DE3) Star, pET21a(+), purified (Ni-NTA HisTrap FF, …)
B2: RslO1 monooxygenase, C-terminal His-tag recombinant protein (enzyme, Streptomyces bottropensis Gö C4/4)
chain: MKFGINLFPTVGPAEKSAGQHFEESLRLAELADELGFHHVKTVEHYFHEYGGYSPDPVTFLAAAAARTRRVRLVTGAVLPVFTHPLKLAGKLAMLDNISQGRLDVGFGRAFLPDEFTAFEISMDESRARFDEGVEAVRRLWAEEDVVWEGTFHRFGPVTMLPRTWQRPHPRILVATAKTPASAEAAARAGHGVMLVPSINPREQVQKTLSLYRDAASAAGFKPTEEDIHMSYNCYLAEDGQEARQKGGQASERANRALASAVSAWRETRSADYPGYEKIVEKAGRGDFDRAVAERKALVGTPDEVRAAIDDIRGWFGDFTISLQVISGAMPFEESARTMRLFAEHLLPHYAAND
notes: RslO1, FMN-dependent luciferase-like monooxygenase of the rishirilide (Rsl) gene cluster of Streptomyces bottropensis Gö C4/4; gene amplified from cosmid 4 and cloned between NdeI and XhoI of pET21a(+); predicted mass of the tagged protein 40.04 kDa; also called monooxygenase RslO1; FMN-dependent luciferase-like monooxygenase RslO1; source: E. coli BL21 (DE3) Star, pET21a(+), purified (Ni-NTA …)

Tests used:
[1] = molecular target: the molecule itself; test: crystal structure; apo RslO4, sitting drop vapor diffusion at 20 °C, 6% ethanol, 0.1 M ammonium acetate pH 5.5, 1.5 M phosphate pH 7.0; space group P3(2)21, two monomers in the asymmetric unit; 1.8 Å
[2] = molecular target: the molecule itself; test: crystal structure; apo RslO1, sitting drop vapor diffusion at 20 °C, 0.1 M HEPES pH 7.5, 36% polyethylene glycol 600 (seeded); space group P2(1)2(1)2(1); 1.60 Å

Protein | stoichiometry N [1] | stoichiometry N [2]
B1 | 2 | 
B2 |  | 2
